The values below are quoted from earlier work in article PMC10373500.

What is called pKa is the negative logarithm of the acid dissociation constant.

The series has as its target Asp76 (UniProt position 102, GSPGADRVVFN).

As to “Ribonuclease T1 (RNase T1) (not stated in the article (Aspergillus oryzae from outside knowledge))”, the pKa is listed as 0.5.
